Laboratory results published in paper PMC8649222.
Values belong to the substance of their own block, whether it stands above or below them.

What was measured:
IL-6:sIL-6R complex = IL-6:sIL-6R complex (UniProt P05231)
IL-11:sIL-11R complex = IL-11:sIL-11R complex (UniProt P20809)
[1] = molecular target: Hyper-IL-6 (Homo sapiens) (UniProt P05231); conditions: cited from earlier work
Hyper-IL-6 (Homo sapiens), sequence (P05231 30-212, chain 1 of 2): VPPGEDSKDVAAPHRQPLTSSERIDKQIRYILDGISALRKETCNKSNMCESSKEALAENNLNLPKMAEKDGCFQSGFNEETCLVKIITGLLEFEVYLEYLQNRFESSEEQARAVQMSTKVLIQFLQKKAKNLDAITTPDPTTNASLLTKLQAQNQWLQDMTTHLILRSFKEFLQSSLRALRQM
Hyper-IL-6 (Homo sapiens), sequence (partner, as listed by the source, chain 2 of 2): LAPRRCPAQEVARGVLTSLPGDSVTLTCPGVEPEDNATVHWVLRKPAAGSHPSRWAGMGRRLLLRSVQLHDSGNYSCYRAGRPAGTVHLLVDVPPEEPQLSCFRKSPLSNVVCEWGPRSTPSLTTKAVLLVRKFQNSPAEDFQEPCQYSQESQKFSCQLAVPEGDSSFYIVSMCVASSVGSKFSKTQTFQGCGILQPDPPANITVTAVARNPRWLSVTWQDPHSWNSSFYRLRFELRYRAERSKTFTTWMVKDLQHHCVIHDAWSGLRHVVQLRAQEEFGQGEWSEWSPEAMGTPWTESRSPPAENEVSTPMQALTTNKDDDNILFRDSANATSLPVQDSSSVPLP

IL-6:sIL-6R complex, sequence (P05231 30-212, chain 1 of 2): as the sequence (P05231 30-212, chain 1 of 2) above
IL-6:sIL-6R complex, sequence (P08887 20-365, chain 2 of 2, further chain): as the sequence (partner, as listed by the source, chain 2 of 2) above
sgp130Fc, sequence (P40189 23-619): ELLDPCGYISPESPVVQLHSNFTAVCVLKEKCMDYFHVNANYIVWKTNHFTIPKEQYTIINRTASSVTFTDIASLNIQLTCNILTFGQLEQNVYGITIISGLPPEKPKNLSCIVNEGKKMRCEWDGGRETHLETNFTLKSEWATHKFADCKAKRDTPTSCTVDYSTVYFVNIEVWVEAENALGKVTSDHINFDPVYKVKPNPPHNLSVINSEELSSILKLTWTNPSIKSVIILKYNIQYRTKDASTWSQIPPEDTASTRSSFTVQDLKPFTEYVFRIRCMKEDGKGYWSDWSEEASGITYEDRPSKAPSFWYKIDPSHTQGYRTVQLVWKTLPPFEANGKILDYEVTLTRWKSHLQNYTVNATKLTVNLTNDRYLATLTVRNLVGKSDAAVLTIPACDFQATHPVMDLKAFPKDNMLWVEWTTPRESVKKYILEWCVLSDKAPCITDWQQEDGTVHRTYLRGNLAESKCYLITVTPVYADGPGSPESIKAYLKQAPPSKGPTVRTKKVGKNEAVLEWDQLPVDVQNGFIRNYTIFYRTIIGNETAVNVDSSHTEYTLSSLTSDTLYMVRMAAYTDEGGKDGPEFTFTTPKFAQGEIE
IL-11:sIL-11R complex, sequence (P20809 22-199, chain 1 of 2): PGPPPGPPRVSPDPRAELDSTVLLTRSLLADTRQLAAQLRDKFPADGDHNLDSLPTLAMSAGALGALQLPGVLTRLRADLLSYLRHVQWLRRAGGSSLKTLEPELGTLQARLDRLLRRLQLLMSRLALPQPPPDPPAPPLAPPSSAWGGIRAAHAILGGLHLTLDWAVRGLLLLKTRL
IL-11:sIL-11R complex, sequence (Q14626 24-370, chain 2 of 2, further chain): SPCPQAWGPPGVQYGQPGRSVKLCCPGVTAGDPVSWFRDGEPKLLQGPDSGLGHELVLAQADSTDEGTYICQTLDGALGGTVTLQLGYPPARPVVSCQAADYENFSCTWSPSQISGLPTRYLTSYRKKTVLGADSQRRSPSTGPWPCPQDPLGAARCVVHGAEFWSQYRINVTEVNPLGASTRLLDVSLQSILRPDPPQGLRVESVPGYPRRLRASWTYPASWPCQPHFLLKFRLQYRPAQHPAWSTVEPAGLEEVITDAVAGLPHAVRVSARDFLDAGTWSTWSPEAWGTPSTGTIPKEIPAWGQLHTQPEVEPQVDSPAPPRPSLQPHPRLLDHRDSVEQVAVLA
sgp130^R281QFc, sequence (P40189 23-619 R281Q): as the sequence (P40189 23-619) above, with R259Q counted along it

IC50 of inhibition of sIL-6R/IL-6 (50/100 ng/ml) induced proliferation of Ba/F3-gp130 cells (blocks the complex from membrane-bound gp130) (IL-6:sIL-6R complex): 0.78 nM
Substance: sgp130^R281QFc (from UniProt P40189 23-619) (Fc fusion)

IC50 of inhibition of sIL-11R/IL-11 (10/100 ng/ml) induced proliferation of Ba/F3-gp130 cells (blocks the complex from membrane-bound gp130) (IL-11:sIL-11R complex): 0.29 nM
IC50 of inhibition of IL-6/sIL-6R (50/100 ng/ml) induced proliferation of Ba/F3-gp130 cells (blocks the complex from membrane-bound gp130) (IL-6:sIL-6R complex): 0.45 nM
Substance: sgp130Fc (from UniProt P40189 23-619) (Fc fusion)

Substance: sgp130FlyFc ECD (from UniProt P40189)
Kd [1]: 0.122 nM
